# Reference: patent US8058507B2, “HOPM1 mediated disease resistance to Pseudomonas syringae in Arabidopsis” (priority 2007, dated 2011)
# B1: full-length HopM1: Pst DC3000 type III effector, 712-aa virulence protein (SEQ ID NO:34) (protein)
# chain: MISSRIGGAGGVELSRVNQQHDTVPAQTAHPNAVTAGMNPPLTPDQSGSHATESSSAGAARLNVAARHTQLLQAFKAEHGTAPVSGAPMISSRAALLIGSLLQAEPLPFEVMAEKLSPERYQLKQFQGSDLQQRLEKFAQPGQIPDKAEVGQLIKGFAQSVADQLEHFQLMHDASPATVGQHAKADKATLAVSQTALGEYAGRASKAIGEGLSNSIASLDEHISALDLTLQDAEQGNKESLHADRQALVDAKTTLVGLHADFVKSPEAKRLASVAAHTQLDNVVSDLVTARNTVGGWKGAGPIVAAAVPQFLSSMTHLGYVRLSTSDKLRDTIPETSSDANMLKASIIGMVAGIAHETVNSVVKPMFQAALQKTGLNERLNMVPMKAVDTNTVIPDPFELKSEHGELVKKTPEEVAQDKAFVKSERALLNQKKVQGSSTHPVGELMAYSAFGGSQAVRQMLNDVHQINGQTLSARALASGFGGAVSASSQTLLQLKSNYVDPQGRKIPVFTPDRAESDLKKDLLKGMDLREPSVRTTFYSKALSGIQSSALTSALPPVTAQAEGASGTLSAGAILRNMALAATGSVSYLSTLYTNQSVTAEAKALKAAGMGGATPMLDRTETALNNIRHPNRESLPHTFQKSTLSGIPRVAENAYHMGRGALQLPTQMAVDTVRVVDEGVLNAVASAREALKQPTKDDDALRALEEGLLDPR
# modifications: 6xHis tag; Pseudomonas syringae pv. tomato str. DC3000
# Key:
# [1] = test system: Arabidopsis Y2H cDNA library; test: Yeast two-hybrid (Y2H) screening with HopM1 baits; type: binding; conditions: protein used as bait
# Description: A LexA-based yeast two-hybrid system was used for screening an Arabidopsis Y2H cDNA library using full-length HopM1 and the dominant-negative domain of HopM1 (HopM11-300) as bait, in separate screenings. This system was based upon a pGilda Lex A expression vector (CLONTECHniques, OCTOBER 1999 p. 26-27, Clontech Laboratories Inc.; herein incorporated by reference in its entirety) for expressing HopM1 proteins in combination with a lacZ reporter gene on a separate plasmid that autonomously replicated in yeast (CLONTECHniques, OCTOBER 1999 p. 26-27, Clontech Laboratories Inc.; herein incorporated by reference in its entirety), see below for addition information (see, MATCHMAKER LexA Two-Hybrid System Catalog #K1609-1 and MATCHMAKER LexA Libraries User Manual (PT3040-1) Version It PR67300 and (Yeast Protocols Handbook, Protocol # PT3024-1 Version # PR13103, published 14 Mar. 2001; herein incorporated by reference in its entirety).
# hopM1 DNA fragments were amplified by PCR using the primers listed below and standard PCR procedures then fragments were isolated and cloned into a bait vector pGilda Lex A (resistance to ampicillin (100 μg/ml) to E. coli hosts; Protocol # PT3147-5; Version # PR81829; Clontech Laboratories, Inc.; herein incorporated by reference in its entirety). […]
# Pst DC3000 ΔCEL mutant = test: Bacterial multiplication and disease symptoms in HopM1 transgenic Arabidopsis plants; type: in vivo, Pseudomonas syringae; conditions: protein expressed in transgenic Arabidopsis (Col-0 gl1), DEX-induced
# Procedure: (§1) Following inoculation, infected plants were monitored daily over a 3- to 4-day period for symptom development and bacterial multiplication. For experiments described in FIGS. 1 and 5, plants were sprayed with 30 μM dexamethasone (DEX) 24 h before bacterial inoculation (1×10^6 cfu/ml).
# (§2) Leaves were harvested and surface sterilized as follows: 1) whole leaves were removed from a host plant and gently mixed in a 70% ethanol solution for 1 minute. Leaves were blotted briefly on paper towels then rinsed in sterile distilled water for 1 minute, then blotted dry on paper towels. Leaf disks were excised from leaves with a 0.5 cm^2 or smaller cork borer, depending on the size of the sample leaves; 2) leaf disks from the leaves of 2 or more independent replicate plants were pooled for a single tissue sample and placed in a 1.5-mL microfuge tube with 100 μL sterile distilled water, the amount of leaf tissue per tube was recorded as leaf surface area. Three or more samples were harvested for each time point. […] The number of serial dilutions necessary to get countable colonies were determined for each sample, however dilutions to 10^−7 were usually sufficient for any bacterial strain; 7) The samples were plated on the appropriate medium (e.g., Low salt Luria Bertani) supplemented with the necessary antibiotics to select for the specific inoculated bacterial strain. […]
# AtMIN proteins = test: Immunoblot of AtMIN proteins co-expressed with HopM1 in yeast; type: cell-based, Arabidopsis thaliana; conditions: co-expression in yeast
# Description: AtMIN fusion proteins expressed from pB42AD were visualized by the HA epitope antibody, as was AtMIN10-HA. HopM1 fusion proteins expressed from pGilda were visualized by the LexA antibody. Coomassie Brilliant Blue-stained gels were used as loading controls. […] AtMIN12 (a putative protein predicted to be targeted to the chloroplast) was not destabilized.
# HopM11-300 or full-length HopM1 pGILDA and each individual test AtMIN pB42AD were co-transformed into yeast cells as described in EXAMPLE III.
# Immunoblot analysis was then performed on yeast cells lines that expressed one each of the 21 AtMIN proteins co-expressed with either HopM11-300 or full-length HopM1(1-712). […] For comparison, AtMIN12 (a hypothetical protein predicted to be targeted to the chloroplast) was not destabilized (FIG. 6A).
# hrcC mutant = test: Bacterial multiplication in HopM1 transgenic Arabidopsis plants; type: in vivo, Pseudomonas syringae; conditions: full-length HopM1 expressed in transgenic Arabidopsis
# Procedure: as §1, §2
molecule,measurement,setting,value
B1,interactors recovered in Y2H screen,[1],failed to recover target interactor host proteins
same,"complementation of the virulence defect (multiplication, disease symptoms)",Pst DC3000 ΔCEL mutant,almost fully complemented
same,destabilization of AtMIN proteins in yeast,AtMIN proteins,destabilized
same,complementation effect on multiplication,hrcC mutant,did not show this effect
